In patent publication US20220153822A1 (ALYTAS THERAPEUTICS, published 2022):
Substitutions are numbered along the chain they refer to.

B1: Antibody No. 39 (antibody, V domains shown)
VH: QVQLVESGGGLVQPGRSLRLSCAASGFTFDDYAMHWVRQAPGKGLEWVSGISWNSGSIGYADSVKGRFTISRDNAKNSLYLQMNSLRAEDTALYYCAKDTTWGGSYPYFDYWGQGTLVTVSS
VL: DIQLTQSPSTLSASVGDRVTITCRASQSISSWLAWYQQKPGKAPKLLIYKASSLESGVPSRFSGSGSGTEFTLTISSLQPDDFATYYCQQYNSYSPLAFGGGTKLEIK
notes: human IgG1, lambda or kappa light chain; also called 448-H05
B2: Antibody No. 40 (antibody, V domains shown)
VH: EVQLLESGGGLVKPGGSLRLSCAASGFTFSDYYMSWIRQAPGKGLEWVSYISSSSSYTNYADSVKGRFTISRDNAKNSLYLQMNSLRAEDTAVYYCARLSTVTRAFDIWGQGTMVTVSS
VL: DIQLTQSPSSVSASVGDRVTITCRASQGISSWLAWYQQKPGKAPKLLIYAASSLQSGVPSRFSGSGSGTDFTLTISSLQPEDFATYYCQQANSFPPTFGQGTKLEIK
notes: human IgG1, lambda or kappa light chain; also called 447-F11
B3: Antibody No. 41 (antibody, V domains shown)
VH: QVQLVQSGGGVVQPGRSQRLSCAASGFTFSNAWMSWVRQAPGKGLEWVSAISGSGGSTYYADSVKGRFTISRDNSKNTLYLQMNSLRAEDTAVYYCAANEGGDAFDIWGQGTMVTVSS
VL: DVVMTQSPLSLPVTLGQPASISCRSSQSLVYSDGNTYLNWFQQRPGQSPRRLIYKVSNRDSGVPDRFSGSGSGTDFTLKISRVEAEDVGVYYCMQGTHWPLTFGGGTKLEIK
notes: human IgG1, lambda or kappa light chain; also called 447-E10
B4: Antibody No. 42 (antibody, V domains shown)
VH: QVQLVESGGGVVQPGRSLRLSCAASGFTFSNYAMHWVRQAPGKGLEWVAVISYDGSKKYYADSVKGRFTISRDNSKNTLYLQMNSLGAEDMAVYYCAREDPRRGGIDYWGQGTLVTVSS
VL: QSVLTQPPPVSGAPGQRVTISCTGSSSNIGAGYDVHWYQQLPGTAPKLLIYGNSNRPSGVPDRFSGSKSGTSASLAITGLQAEDEADYYCQSYDSSLSGYVFGTGTKVTVL
notes: human IgG1, lambda or kappa light chain; also called 447-B06
B5: Antibody No. 43 (antibody, V domains shown)
V domain 1: QVQLVQSGAEVKKPGSSVKVSCKASGGTFSSYAISWVRQAPGQGLEWMGGIIPIFGTANYAQKSQGRVTITADESTSTAYMELSSLRSEDTAVYYCARESGSGNRIPYGMDVWGQGTMVTVSS
V domain 2: QSVLTQPPSVSGAPGQRVTISCTGSSSNIGAGYDVHWYQQLPGTAPKLLIYGNSNRPSGVPDRFSGSKSGTSASLAITGLQAEDEADYYCQSYDSSLSGPVVFGGGTQVTVL
notes: human IgG1, lambda or kappa light chain; also called 447-A07
B6: Antibody No. 45 (antibody, V domains shown)
VH: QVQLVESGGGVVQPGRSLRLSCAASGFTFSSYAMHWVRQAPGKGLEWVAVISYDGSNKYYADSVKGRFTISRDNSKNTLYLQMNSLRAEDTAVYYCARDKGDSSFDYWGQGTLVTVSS
VL: B4 VL with P9S, Y100V, T104G
notes: human IgG1, lambda or kappa light chain; also called 447-E08
B7: Antibody No. 46 (antibody, V domains shown)
VH: QVQLVQSGGGVVQPGRSLRLSCAASGFTFSSYAMHWVRQAPGKGLEWVAVISYDGSNKYYADSVKGRFTISRDNSKNTLYLQMNSLRAEDTAVYYCARDQYDILTGYGGTALDYWGQGTLVTVSS
VL: QSALTQPPSASGSPGQSVTISCTGTSSDVGGYNYVSWYQQHPGEAPKLMIYEVSKRPSGVPDRFSGSKSGNTASLTVSGLQAEDEADYYCSSYAGSNNLVFGGGTKLTVL
notes: human IgG1, lambda or kappa light chain; also called 447-B07
B8: Antibody No. 47 (antibody, V domains shown)
VH: QVQLVQSGGGVVQPGRSLRLSCAASGFTFSSYAMHWVRQAPGKGLEWVAVISYDGSNKYYADSVKGRFTISRDNSKNTLYLQMNSLRAEDTAVYYCAREAGEGVDYWGQGTLVTVSS
VL: B4 VL with P9S, V108L
notes: human IgG1, lambda or kappa light chain; also called 447-A08
B9: Antibody No. 48 (antibody, V domains shown)
VH: EVQLVQSGGGVVQPGRSLRLSCAASGFTFSSYAMHWVRQAPGKGLEWVAVISYDGSNKYYADSVKGRFTISRDNSKNTLYLQMNSLRAEDTAVYYCAAESAYSSSWSGLRFDPWGQGTLVTVSS
VL: B4 VL with P9S, V108L
notes: human IgG1, lambda or kappa light chain; also called 447-B08
B10: Antibody No. 49 (antibody, V domains shown)
VH: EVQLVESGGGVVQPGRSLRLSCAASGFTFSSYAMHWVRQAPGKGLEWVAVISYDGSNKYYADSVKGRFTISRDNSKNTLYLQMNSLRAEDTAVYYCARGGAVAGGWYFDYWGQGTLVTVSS
VL: B2 VL with Q3V, L4M
notes: human IgG1, lambda or kappa light chain; also called 448-H04
B11: Antibody No. 51 (antibody, V domains shown)
VH: QVQLQESGGGVVQPGRSLRLSCAASGFTFSSYAMHWVRQAPGKGLEWVAVISYDGSNKYYAGSVKGRFTISRDNSKNTLYLQMNSLRAEDTAVYYCARDWRGVYFDYWGQGTLVTVSS
VL: QSALTQPASVSGSPGQSITISCTGTSSDVGGYNYVSWYQQHPGKAPKLMIYEVSNRPSGVSNRFSGSKSGNTASLTISGLQAEDEADYYCSSYTSSSTLVFGGGTKLTVL
notes: human IgG1, lambda or kappa light chain; also called 447-E05
B12: Antibody No. 52 (antibody, V domains shown)
VH: QVQLVQSGAEVKKPGASVKVSCKASGYTFTSYGISWVRQAPGQGLEWMGWISAYNGNTNYAQKLQGRVTMTTDTSTSTAYMELRSLRSDDTAVYYCASWGVVGGMDVWGQGTLVTVSS
VL: B2 VL with L4M, P96L, Q100G, L104V, E105D
notes: human IgG1, lambda or kappa light chain; also called 448-F05
B13: Antibody No. 53 (antibody, V domains shown)
VH: B8 VH with A33G, R98K, E99D, A100F, G101S, E102D, G103A, V104F, Y106I, L112M
VL: QSVLTQPPSVSAAPGQKVTISCSGSSSNIGNNYVSWYQQLPGTAPKLLIYDNNKRPSGIPDRFSGSKSGTSATLGITGLQTGDEADYYCGTWDSSLSAVVFGGGTKVTVL
notes: human IgG1, lambda or kappa light chain; also called 447-G07
B14: Antibody No. 54 (antibody, V domains shown)
VH: B8 VH with Q1E, V5L, Q6E, A33G, R98K, E99G, A100S, E102W, G103Y, V104F
VL: not shown
notes: human IgG1, lambda or kappa light chain; also called 447-C12
B15: Antibody No. 55 (antibody, V domains shown)
VH: QVQLVQSGAEVKKPGASVKVSCKASGYTFTSYYMHWVRQAPGQGLEWMGIINPSGGSTSYAQKFQGRVTMTRDTSTSTVYMELSSLRSEDTAVYYCARDDYGDYWGQGTLVTVSS
VL: QSALTQPASVSGSPGQSITIPCTGTSSDVGGYNYVSWYQQHPGKAPKLMIYEVSNRPSGVSNRFSGSKSGNTASLTISGLQAEDEADYYCSSYTSSSFSFGTGTKLTVL
notes: human IgG1, lambda or kappa light chain; also called 447-C08
B16: Antibody No. 57 (antibody, V domains shown)
VH: QVQLVESGAEVKKPGASVKVSCKASGYTFTSYYMHWVRQAPGQGLEWMGIINPSGGSTSYAQKFQGRVTMTRDTSTSTVYMELSSLRSEDTAVYYCARMTTSLGFDYWGQGTLVTVSS
VL: B2 VL with R18K, S31N, Q38L, I48V, S77N, F94L, P96L, Q100G, K103R
notes: human IgG1, lambda or kappa light chain; also called 447-H10
B17: Antibody No. 23 (antibody, V domains shown)
VH: QVQLVQSGGGLVQPGRSLRLSCAASGFTFDDYAMHWVRQAPGKGLEWVSGISWNSGSIGYADSVKGRFTISRDNAKNSLYLQMNSLRAEDTALYYCAKDIAGGDYPVFDYWGQGTLVTVSS
VL: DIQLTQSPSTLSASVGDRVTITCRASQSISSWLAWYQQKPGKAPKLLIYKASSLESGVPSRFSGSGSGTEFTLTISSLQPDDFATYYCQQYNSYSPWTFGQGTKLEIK
notes: human IgG1, lambda or kappa light chain; also called 435-B08
B18: Antibody No. 24 (antibody, V domains shown)
VH: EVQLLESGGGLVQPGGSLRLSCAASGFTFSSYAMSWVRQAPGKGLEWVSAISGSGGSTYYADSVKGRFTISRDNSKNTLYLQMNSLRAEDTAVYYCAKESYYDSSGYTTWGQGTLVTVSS
VL: B4 VL with P9S, V108L
notes: human IgG1, lambda or kappa light chain; also called 447-C09
B19: Antibody No. 26 (antibody, V domains shown)
VH: EVQLLESGGGVVQPGRSLRLSCAASGFTFSSYAMHWVRQAPGKGLEWVAVISYDGSNKYYADSVKGRFTISRDNSKNTLYLQMNSLRAEDTAVYYCARELYYGPGGMDVWGQGTLVTVSS
VL: B4 VL with P9S, Y100S, T104G, V108L
notes: human IgG1, lambda or kappa light chain; also called 447-D06

Molecular target: T1, Perilipin epitope 6 peptide EVRVPWLHSLAAAQE (SEQ ID NO. 333) (human, Biotin-PEG Spacer and GGSGGS Linker (SEQ ID NO. 438) at the N-terminus, or Biotin-PEG Spacer and AAAAA Linker (SEQ ID NO. 439) at the C-terminus)
T1 construct: Two biotinylated variants were used for selection and ELISA; On the peptide array it stood without biotin; also called target peptide
T1 peptide: EVRVPWLHSLAAAQE
Test: phage display selection and ELISA on biotinylated target peptide

| Binder | binding result |
| --- | --- |
| B1 | binds |
| B2 | binds |
| B3 | binds |
| B4 | binds |
| B5 | binds |
| B6 | binds |
| B7 | binds |
| B8 | binds |
| B9 | binds |
| B10 | binds |
| B11 | binds |
| B12 | binds |
| B13 | binds |
| B14 | binds |
| B15 | binds |
| B16 | binds |
| B17 | binds |
| B18 | binds |
| B19 | binds |
